Values quoted from earlier work, collected in publication PMC3193156.

Legend:
Cys117 = conditions: Resting state (free reduced enzyme)
His103 = conditions: Resting state (free reduced enzyme)
Cys95 = Cys95 (UniProt position 95, GQSRFCIFSSS); assay: NMR
His80 = His80 (UniProt position 80, GNGLGHEFLND); assay: NMR

Substance | pKa (Cys117) | pKa (His103) | pKa (Cys95) | pKa (His80)
Methionine sulfoxide reductase B (MsrB domain of PilB) (Neisseria meningitidis) | 9.3 | 6.6 |  | 
Methionine-R-sulfoxide reductase B1 (MsrB1, selenoprotein R), Cys95 form (Mus musculus; U95C) |  |  | 6.0 | 5.7
